Measurements taken from publication PMC5505994 (Scientific Reports, 2017).

B1: Mycobacterium bovis thioredoxin TrxC (natural protein)
chain: MTDSEKSATIKVTDASFATDVLSSNKPVLVDFWATWCGPCKMVAPVLEEIATERATDLTVAKLDVDTNPETARNFQVVSIPTLILFKDGQPVKRIVGAKGKAALLRELSDVVPNLN
B2: MbAhpC with deletion of the loop residues 23 to 34 (enzyme)
chain: MPLLTIGDQFPAYQLTALIGGDFTTITSDEHPGKWRVVFFWPKDFTFVCPTEIAAFSKLNDEFEDRDAQILGVSIDSEFAHFQWRAQHNDLKTLPFPMLSDIKRELSQAAGVLNADGVADRVTFIVDPNNEIQFVSATAGSVGRNVDEVLRVLDALQSDELCACNWRKGDPTLDAGELLKASA
B3: alkyl hydroperoxide reductase subunit C (AhpC) from Mycobacterium bovis (BCG strain), wild type (enzyme)
chain: MPLLTIGDQFPAYQLTALIGGDLSKVDAKQPGDYFTTITSDEHPGKWRVVFFWPKDFTFVCPTEIAAFSKLNDEFEDRDAQILGVSIDSEFAHFQWRAQHNDLKTLPFPMLSDIKRELSQAAGVLNADGVADRVTFIVDPNNEIQFVSATAGSVGRNVDEVLRVLDALQSDELCACNWRKGDPTLDAGELLKASA

Columns and labels:
[1] = molecular target: B3; test: NMR titration; settings: both partners purified
[2] = molecular target: the molecule itself; test: SEC
[3] = molecular target: the molecule itself; test: negative-stain electron microscopy with 2D classification

Binder	binding result [1]	stoichiometry N [2]	stoichiometry N [3]
B1	binds	–	–
B2	–	2	–
B3	–	2	12
